In assay [1] the target is T1, soluble human FcRn (human, UniProt P55899 24-297; P61769 21-119, biotinylated (Sulfo-NHS-LC-Biotin) in the ELISA; amine-coupled to CM5 chip in SPR).
T1 construct: also called shFcRn; biotinylated shFcRn
The assay can be described thus: assay not named for Table 26, taken as the IgG competition ELISA. (ELISA stands for enzyme-linked immunosorbent assay.)

For assay [2], the target named is T1, soluble human FcRn. The assay is described as follows: SPR, pH 7.4. On the technique in general: SPR reads the build-up and loss of mass on a sensor chip optically.
Protocol: (§1) The following steps were performed to cross-link soluble human or cynomolgus FcRn to the dextran surface of a CM5 sensor chip (Biacore AB, Uppsala, Sweden) by an amine coupling reaction involving 1-ethyl-(3-dimethylaminopropyl)-carbodiimide hydrochloride (EDC) (Biacore AB, Uppsala, Sweden) and N-hydroxysuccinimide (NHS) (Biacore AB, Uppsala, Sweden) as recommended by Biacore (BIAapplications Handbook, version AB, section 4.2, Biacore AB, Uppsala, Sweden). […] Residual sites on the FcRn flow cell were blocked with 1 M ethanolamine hydrochloride pH 8.5 (Biacore AB, Uppsala, Sweden). A control flow cell was blocked with ethanolamine for reference subtraction. For analysis of the monomeric peptides, FcRn was coated to a final density of 4000-5000 response units (RU). For analysis of the peptide dimers, FcRn was coated to a density of 2000-2500 RU. All SPR measurements were performed using a BIACORE 3000 Instrument (Biacore AB Uppsala, Sweden). For measurements done at either pH 6 or pH 7.4, experiments were performed in 50 mM phosphate, 100 mM sodium chloride, 0.01% surfactant P20 (Biacore AB, Uppsala, Sweden).
(§2) Ten, 2-fold dilutions of the peptide were injected over the FcRn-CM5 chip at a rate of 20 μl/min for 2 min. The peptide was dissociated from the chip for 2.5 minutes with buffer. […] Sensorgrams were generated and analyzed using BiaEval software version 3.1 (Biacore AB, Uppsala, Sweden). […]
Assay [3] concerns the target T1, soluble human FcRn. The assay is described as follows: SPR, pH 7.4. The source holds these as a separate data set.
Protocol: as §1
(§3) Ten, 2-fold dilutions of the peptide were injected over the FcRn-CM5 chip at a rate of 20 μl/min for 2 min. The peptide was dissociated from the chip for 2.5 minutes with buffer. Any remaining peptide was removed from the chip with a 30 second injection of HBS-P buffer (Biacore AB, Uppsala, Sweden) at a rate of 30 μl/min. Sensorgrams were generated and analyzed using BiaEval software version 3.1 (Biacore AB, Uppsala, Sweden). The equilibrium RU observed for each injection was plotted against concentration. The equilibrium KD values were derived by analysis of the plots using the steady state affinity model included in the BiaEval software.
Assay [4] addresses T1, soluble human FcRn. The assay can be described thus: SPR, pH 6.
Protocol: as §1, §3
In assay [5] the target is T1, soluble human FcRn. The assay is described as follows: SPR, pH 6. This is another data set of the same source.
Protocol: as §1, §3
Assay [6] concerns the target T1, soluble human FcRn. The assay is described as follows: SPR, pH 7.4. The source holds these as a separate data set.
Protocol: as §1, §2
Assay [7] concerns the target T1, soluble human FcRn. The assay can be described thus: SPR, pH 6. The source holds these as a separate data set.
Protocol: as §1, §3
Assay [8] concerns the target T1, soluble human FcRn. The assay can be described thus: SPR, pH 7.4. This is another data set of the same source.
Protocol: as §1, §3
Assay [9] concerns the target T1, soluble human FcRn. The assay can be described thus: SPR, pH 7.4. This is another data set of the same source.
Protocol: as §1, §3
The target in assay [10] is T1, soluble human FcRn. The assay is described as follows: SPR, pH 7.4. The source holds these as a separate data set.
Protocol: as §1, §2
In assay [11] the target is T1, soluble human FcRn. The assay can be described thus: SPR, pH 6. The source holds these as a separate data set.
Protocol: as §1, §3
The target in assay [12] is T1, soluble human FcRn. The assay can be described thus: SPR, pH 6. The source holds these as a separate data set.
Protocol: as §1, §3
Assay [13] has as its target T1, soluble human FcRn. The assay is described as follows: SPR, pH 6. This is another data set of the same source.
Protocol: as §1, §2
In assay [14] the target is T1, soluble human FcRn. The assay is described as follows: SPR, pH 7.4. The source holds these as a separate data set.
Protocol: as §1, §3
Assay [15] has as its target T1, soluble human FcRn. The assay can be described thus: SPR, pH 7.4. This is another data set of the same source.
Protocol: as §1, §3
Assay [16] addresses T1, soluble human FcRn. The assay is described as follows: SPR, pH 6. The source holds these as a separate data set.
Protocol: as §1, §3
Assay [17] addresses T1, soluble human FcRn. The assay is described as follows: SPR, pH 6. This is another data set of the same source.
Protocol: as §1, §3
Assay [18] deals with T1, soluble human FcRn. The assay is described as follows: ELISA, competitor human IgG.
Protocol: (§4) The wells were coated with 100 μl/well of 1 μg/ml biotinylated-shFcRn in Buffer A. The plate was sealed and incubated at 37° C. for 2 hours. Afterwards, the plate washed with 200 μl/well of Buffer B (Buffer B: 100 mM MES pH 6, 150 mM NaCl, 0.5% BSA IgG-free (Jackson ImmunoResearch, West Grove, Pa.), 0.05% Tween-20). […] To allow for mixing, the plate was rocked for 2 minutes, sealed and incubated at 37° C. for 2 hours. […] The plate was covered, incubated for 30 minutes at room temperature and washed 4 times with 200 μl/well of ice-cold buffer B. SureBlue TMB substrate solution (100 μl/well, KPL, Gaithersburg, Md.) was added and the plate was allowed to incubate at room temperature until color developed, which took 5 to 10 minutes. Once color developed, 100 μl/well of TMB stop solution (KPL, Gaithersburg, Md.) was added and the absorbance was measured at 450 nm. The data was plotted as absorbance vs. peptide concentration to derive the inhibitory concentration 50% (IC₅₀) values.
In assay [19] the target is T1, soluble human FcRn. The assay can be described thus: ELISA, competitor human IgG. This is another data set of the same source.
Protocol: as §4
The target in assay [20] is T1, soluble human FcRn. The assay is described as follows: ELISA, competitor human IgG. This is another data set of the same source.
Protocol: as §4
Assay [21] concerns the target T1, soluble human FcRn. The assay is described as follows: ELISA, competitor human IgG. The source holds these as a separate data set.
Protocol: as §4
Assay [22] concerns the target T1, soluble human FcRn. The assay is described as follows: SPR, pH 6. This is another data set of the same source.
Protocol: as §1, §2
For assay [23], the target named is T1, soluble human FcRn. The assay can be described thus: SPR, pH 6. This is another data set of the same source.
Protocol: as §1, §2
The target in assay [24] is T1, soluble human FcRn. The assay can be described thus: ELISA, competitor human IgG. This is another data set of the same source.
Protocol: as §4
Assay [25] addresses T1, soluble human FcRn. The assay can be described thus: ELISA, competitor human IgG. This is another data set of the same source.
Protocol: as §4
For assay [26], the target named is T1, soluble human FcRn. The assay can be described thus: ELISA, competitor human IgG. This is another data set of the same source.
Protocol: as §4
Assay [27] deals with T1, soluble human FcRn. The assay is described as follows: SPR, pH 6. This is another data set of the same source.
Protocol: as §1, §3
Assay [28] addresses T1, soluble human FcRn. The assay can be described thus: SPR, pH 6. The source holds these as a separate data set.
Protocol: as §1, §3
The target of assay [29] is T1, soluble human FcRn. The assay is described as follows: SPR, pH 6. This is another data set of the same source.
Protocol: as §1, §2
The target of assay [30] is T1, soluble human FcRn. The assay is described as follows: ELISA, competitor human IgG. This is another data set of the same source.
Protocol: as §4
For assay [31], the target named is T1, soluble human FcRn. The assay can be described thus: ELISA, competitor human IgG. This is another data set of the same source.
Protocol: as §4
In assay [32] the target is T1, soluble human FcRn. The assay is described as follows: ELISA, competitor human IgG. The source holds these as a separate data set.
Protocol: as §4
The target of assay [33] is T1, soluble human FcRn. The assay can be described thus: ELISA, competitor human IgG. This is another data set of the same source.
Protocol: as §4
For assay [34], the target named is T1, soluble human FcRn. The assay can be described thus: SPR, pH 6. The source holds these as a separate data set.
Protocol: as §1, §3
In assay [35] the target is T1, soluble human FcRn. The assay can be described thus: SPR, pH 6. The source holds these as a separate data set.
Protocol: as §1, §3

Bridge positions count the residues as written; N and C are the ends. Ends that are not written are not given here.

The term IC50 denotes the concentration needed to halve the response being measured. High values mean weaker potency in that assay, low ones greater potency in that assay. As a reminder, the Kd is a measure of binding affinity in units of concentration. Low values mean higher affinity, high ones lower affinity.

T1 sequence (P55899 24-297 limits assumed, chain 1 of 2): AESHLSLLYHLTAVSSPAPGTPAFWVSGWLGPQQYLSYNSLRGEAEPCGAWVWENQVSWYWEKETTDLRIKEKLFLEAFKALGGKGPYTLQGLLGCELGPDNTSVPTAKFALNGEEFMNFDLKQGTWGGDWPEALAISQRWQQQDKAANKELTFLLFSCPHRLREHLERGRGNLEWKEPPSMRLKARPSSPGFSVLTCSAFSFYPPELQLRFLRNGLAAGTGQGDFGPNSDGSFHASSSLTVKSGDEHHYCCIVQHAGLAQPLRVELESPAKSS
T1 sequence (P61769 21-119 limits assumed, chain 2 of 2): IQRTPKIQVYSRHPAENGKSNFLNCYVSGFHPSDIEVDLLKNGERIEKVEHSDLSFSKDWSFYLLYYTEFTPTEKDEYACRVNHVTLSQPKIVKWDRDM

B1: Peptide No. 289 (peptide)
peptide: RFXTGHFGGLYPC
modifications: not fully specified; Pen at 3; Sar at 9; NMeLeu at 10; intrachain disulfide; C-terminal amide; N-termini joined by an Asp linker that carries PEG 30 kDa
notes: structure only as drawing CHEM-US-00138; also called Pegylated Analog of Peptide No. 285
As for B1, the IC50 in [1] stood at 18 nM.

For QRFCTGHFGGLYPCNGP-NH2 (disulfide 4-14 (inferred)) [SEQ ID NO:1], the Kd in assay [2] amounted to 30000 nM; in [3] it was 30000 nM; in assay [4], 5100 nM; in assay [5] it was 5100 nM; in assay [6], 30000 nM; in assay [7], 5100 nM. Also, the Kd in assay [8] came to 30000 nM; in [9] it was 30000 nM; in assay [10], 30000 nM; in assay [11], 5100 nM; in [12], 5100 nM; in [13], 5100 nM. The Kd in assay [14] was determined as 30000 nM; in assay [15] it was 30000 nM; in [16], 5100 nM; in assay [17], 5100 nM.

In the case of QRFXTGHFGGLYPCNGP (Pen (L-penicillamine) at 4; disulfide; C-terminal amide) [Peptide No. 32], the 50% inhibitory concentration (IC50) in assay [18], in assay [19], in assay [20], in assay [21], in [24] and in assay [25] was 2000 nM each time. Further, the IC50 in [26], in assay [30], in [31], in assay [32] and in assay [33] was 2000 nM each time. The dissociation constant (Kd) in assay [4], in [5], in assay [22], in assay [23], in assay [27] and in assay [28] was 250 nM each time. In addition, the Kd in [29], in assay [16], in [34], in assay [35] and in assay [17] was 250 nM each time.

These data come from patent US20070254831A1 (published 2007).
